Data: paper PMC2172161 (The Journal of Cell Biology, 2004)

Molecular target: the molecule itself
Experiment: fluorescence microscopy of purified complexes on slides

B1: Heterotetrameric complex containing just Cdc12(T48N), but wild-type Cdc3, Cdc10, and Cdc11 (complex)
chain 1: MSAATATAAPVPPPVGISNLPNQRYKIVNEEGGTFTVMLCGESGLGKNTFINTLFQTVLKRADGQQHRQEPIRKTVEIDITRALLEEKHFELRVNVIDTPGFGDNVNNNKAWQPLVDFIDDQHDSYMRQEQQPYRTKKFDLRVHAVLYFIRPTGHGLKPIDIETMKRLSTRANLIPVIAKADTLTAQELQQFKSRIRQVIEAQEIRIFTPPLDADSKEDAKSGSNPDSAAVEHARQLIEAMPFAIVGSEKKFDNGQGTQVVARKYPWGLVEIENDSHCDFRKLRALLLRTYLLDLISTTQEMHYETYRRLRLEGHENTGEGNEDFTLPAIAPARKLSHNPRYKEEENALKKYFTDQVKAEEQRFRQWEQNIVNERIRLNGDLEEIQGKVKKLEEQVKSLQVKKSHLK
chain 2: MSLKEEQVSIKQDPEQEERQHDQFNDVQIKQESQDHDGVDSQYTNGTQNDDSERFEAAESDVKVEPGLGMGITSSQSEKGQVLPDQPEIKFIRRQINGYVGFANLPKQWHRRSIKNGFSFNLLCVGPDGIGKTTLMKTLFNNDDIEANLVKDYEEELANDQEEEEGQGEGHENQSQEQRHKVKIKSYESVIEENGVKLNLNVIDTEGFGDFLNNDQKSWDPIIKEIDSRFDQYLDAENKINRHSINDKRIHACLYFIEPTGHYLKPLDLKFMQSVYEKCNLIPVIAKSDILTDEEILSFKKTIMNQLIQSNIELFKPPIYSNDDAENSHLSERLFSSLPYAVIGSNDIVENYSGNQVRGRSYPWGVIEVDNDNHSDFNLLKNLLIKQFMEELKERTSKILYENYRSSKLAKLGIKQDNSVFKEFDPISKQQEEKTLHEAKLAKLEIEMKTVFQQKVSEKEKKLQKSETELFARHKEMKEKLTKQLKALEDKKKQLELSINSASPNVNHSPVPTKKKGFLR
chain 3: MDPLSSVQPASYVGFDTITNQIEHRLLKKGFQFNIMVVGQSGLGKSTLINTLFASHLIDSATGDDISALPVTKTTEMKISTHTLVEDRVRLNINVIDTPGFGDFIDNSKAWEPIVKYIKEQHSQYLRKELTAQRERFITDTRVHAILYFLQPNGKELSRLDVEALKRLTEIANVIPVIGKSDTLTLDERTEFRELIQNEFEKYNFKIYPYDSEELTDEELELNRSVRSIIPFAVVGSENEIEINGETFRGRKTRWSAINVEDINQCDFVYLREFLIRTHLQDLIETTSYIHYEGFRARQLIALKENANSRSSAHMSSNAIQR
chain 4: MSGIIDASSALRKRKHLKRGITFTVMIVGQSGSGRSTFINTLCGQQVVDTSTTILLPTDTSTEIDLQLREETVELEDDEGVKIQLNIIDTPGFGDSLDNSPSFEIISDYIRHQYDEILLEESRVRRNPRFKDGRVHCCLYLINPTGHGLKEIDVEFIRQLGSLVNIIPVISKSDSLTRDELKLNKKLIMEDIDRWNLPIYNFPFDEDEISDEDYETNMYLRTLLPFAIIGSNEVYEMGGDVGTIRGRKYPWGILDVEDSSISDFVILRNALLISHLHDLKNYTHEILYERYRTEALSGESVAAESIRPNLTKLNGSSSSSTTTRRNTNPFKQSNNINNDVLNPASDMHGQSTGENNETYMTREEQIRLEEERLKAFEERVQQELLLKRQELLQREKELREIEARLEKEAKIKQEE
binding result: binds
